Values of other authors in paper PMC8144458.

What was measured:
Assay in all cases: NMR
Settings in all cases: HdeA without client protein
[1] = target: Glu46 (UniProt position 67, NKDKPEDAVLD)
[2] = target: Asp47 (UniProt position 68, KDKPEDAVLDV)
[3] = target: Asp51 (UniProt position 72, EDAVLDVQGIA)

Acid stress chaperone HdeA (Escherichia coli)
pKa [1]: 4.07
pKa [2]: 4.14
pKa [3]: 3.83
